The record followed here is PMC10715038 (Microbiology Spectrum, 2023).

For test [1], the target named is T1, SARS-CoV-2 WHU01 Spike RBD, monomeric (SARS-CoV-2, UniProt P0DTC2).
T1 construct: not shown: Fc (human IgG1), C-terminal, cleaved
Briefly: SPR. The note with it: both partners purified.

Test [2] addresses T1, SARS-CoV-2 WHU01 Spike RBD, monomeric. Briefly: SPR. The settings on record: both partners purified. The source holds these as a separate data set.

B1: Rhinolophus sinicus bat ACE2-huFc (soluble bat ACE2 ectodomain, human IgG1 Fc fusion) (Fc fusion)
chain: QSTTEDEAKMFLDKFNTKAEDLSHQSSLASWDYNTNINDENVQKMDEAGAKWSAFYEEQSKLAKNYSLEQIQNVTVKLQLQILQQSGSPVLSEDKSKRLNSILNAMSTIYSTGKVCKPNKPQECLLLEPGLDNIMGTSKDYNERLWAWEGWRAEVGKQLRPLYEEYVVLKNEMARGYHYEDYGDYWRRDYETEESPGPGYSRDQLMKDVERIFTEIKPLYEHLHAYVRAKLMDTYPFHISPTGCLPAHLLGDMWGRFWTNLYPLTVPFGQKPNIDVTDEMLKQGWDADRIFKEAEKFFVSVGLPNMTEGFWNNSMLTEPGDGRKVVCHPTAWDLGKGDFRIKMCTKVTMEDFLTAHHEMGHIQYDMAYASQPYLLRNGANEGFHEAVGEVMSLSVATPKHLKTMGLLSPDFREDNETEINFLLKQALNIVGTLPFTYMLEKWRWMVFKGEIPKEEWMKKWWEMKRKIVGVVEPVPHDETYCDPASLFHVANDYSFIRYYTRTIFEFQFHEALCRIAQHDGPLHKCDISNSTDAGKKLHQMLSVGKSQAWTKTLEDIVDSRNMDVGPLLKYFEPLYTWLQEQNRKSYVGWNTDWSPYSDQSIKVRISLKSALGENAYEWNDNEMYLFRSSVAYAMREYFLKEKHQTILFGAENVWVSNLKPRISFNFHVTSPGNLSDIIPRPEVEGAIRMSRSRINDAFRLDDNSLEFLGIQPTLGPPYQPPVT
As usually defined, the Kd is the concentration at which binding is half-saturated. The low end stands for a tighter complex, the high end for a looser complex. As a reminder, the koff is the rate constant with which the complex falls apart. The kon is the second-order rate constant of association. In test [1], B1 came in with a Kd of 1140 nM, a koff of 0.0343 s⁻¹ and a kon of 30000 M⁻¹ s⁻¹. In test [2], binding was put at a Kd of 1920 nM, the koff was determined as 0.0377 s⁻¹ and the kon worked out at 20000 M⁻¹ s⁻¹.

B2: Pig ACE2-huFc (soluble pig ACE2 ectodomain, human IgG1 Fc fusion) (Fc fusion)
chain: QSTTEELAKTFLEKFNLEAEDLAYQSSLASWNYNTNITDENIQKMNDARAKWSAFYEEQSRIAKTYPLDEIQTLILKRQLQALQQSGTSGLSADKSKRLNTILNTMSTIYSSGKVLDPNNPQECLVLEPGLDEIMENSKDYSRRLWAWESWRAEVGKQLRPLYEEYVVLENEMARANNYEDYGDYWRGDYEVTGTGDYDYSRNQLMEDVERTFAEIKPLYEHLHAYVRAKLMDAYPSRISPTGCLPAHLLGDMWGRFWTNLYPLTVPFGEKPSIDVTEAMVNQSWDAIRIFEEAEKFFVSIGLPNMTQGFWNNSMLTEPGDGRKVVCHPTAWDLGKGDFRIKMCTKVTMDDFLTAHHEMGHIQYDMAYAIQPYLLRNGANEGFHEAVGEIMSLSAATPHYLKALGLLPPDFYEDSETEINFLLKQALTIVGTLPFTYMLEKWRWMVFKGEIPKEQWMQKWWEMKREIVGVVEPLPHDETYCDPACLFHVAEDYSFIRYYTRTIYQFQFHEALCRTAKHEGPLYKCDISNSTEAGQKLLQMLSLGKSEPWTLALENIVGVKTMDVKPLLSYFEPLLTWLKAQNGNSSVGWNTDWTPYADQSIKVRISLKSALGKEAYEWNDNEMYLFRSSIAYAMRNYFSSAKNETIPFGAEDVWVSDLKPRISFNFFVTSPANMSDIIPRSDVEKAISMSRSRINDAFRLDDNTLEFLGIQPTLGPPDEPPVT
In the case of B2, in test [1], binding was put at a Kd of 1140 nM, the koff was determined as 0.1 s⁻¹ and the kon was 87000 M⁻¹ s⁻¹. In test [2], this molecule gave a Kd of 1000 nM, a koff of 0.0395 s⁻¹ and a kon of 40000 M⁻¹ s⁻¹.
